{"source": "patent US20190282654A1", "binders": {"B1": {"name": "bicyclic peptide 4 (peptide)", "peptide": "RRRR[2Nal]FCALDWSWLQC", "modifications": "linker 7-16 via BMB″ (inferred); not fully specified (bridges); reading uncertain"}}, "key": {"GST-NEMO(1-196), Q9Y6K9": {"target": "T1, GST-NEMO(1-196), Q9Y6K9", "T1 chain": "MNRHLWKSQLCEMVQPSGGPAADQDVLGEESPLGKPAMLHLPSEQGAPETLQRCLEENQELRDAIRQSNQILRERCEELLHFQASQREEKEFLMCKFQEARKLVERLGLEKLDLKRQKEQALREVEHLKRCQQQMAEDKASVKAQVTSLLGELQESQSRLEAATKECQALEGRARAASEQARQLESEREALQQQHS", "assay": "HTRF competition: GST-NEMO (30 nM) + biotin-IKKβKK/RR(701-745) (50 nM), 5 mM TCEP"}, "[1]": {"target": "NEMO (endogenous, in NF-κB reporter (Luc)-HEK293 cells), Q9Y6K9", "assay": "cell-based or functional assay"}}, "note": "Bridge positions count the residues as written; N and C are the ends. Square brackets hold non-standard residues; d marks the D form. Primed or numbered codes have the meaning given here. Ends that are not written are not given here. 2Nal = N[C@@H](Cc1ccc2ccccc2c1)C(=O)O; BMB″ = not defined here", "data": [{"binder": "B1", "values": [{"measurement": "IC50", "setting": "GST-NEMO(1-196), Q9Y6K9", "result": 3.5, "unit": "µM"}, {"measurement": "TNFα-induced luciferase activity, NF-κB reporter (Luc)-HEK293 cells, IC50", "setting": "[1]", "result": 20, "unit": "µM"}]}]}
